Consider six proteins from publication PMC8465894.

Series [1] in a line: rescue of surface CD55 in PIGT-KO cells, flow cytometry. The following applies: glycan lost; control: wild-type PIGT. (In general: A flow cytometer gives signals particle by particle.)
Series [2] in a line: rescue of surface CD55 in GPAA1-KO cells, flow cytometry. The following applies: glycan lost; control: wild-type GPAA1.
Series [3] is described as follows: rescue of surface CD55 in PIGS-KO cells, flow cytometry. The following applies: glycan lost; control: wild-type PIGS.

B1: PIGT: N164Q (protein)
parent chain: MAAAMPLALLVLLLLGPGGWCLAEPPRDSLREELVITPLPSGDVAATFQFRTRWDSELQREGVSHYRLFPKALGQLISKYSLRELHLSFTQGFWRTRYWGPPFLQAPSGAELWVWFQDTVTDVDKSWKELSNVLSGIFCASLNFIDSTNTVTPTASFKPLGLANDTDHYFLRYAVLPREVVCTENLTPWKKLLPCSSKAGLSVLLKADRLFHTSYHSQAVHIRPVCRNARCTSISWELRQTLSVVFDAFITGQGKKDWSLFRMFSRTLTEPCPLASESRVYVDITTYNQDNETLEVHPPPTTTYQDVILGTRKTYAIYDLLDTAMINNSRNLNIQLKWKRPPENEAPPVPFLHAQRYVSGYGLQKGELSTLLYNTHPYRAFPVLLLDTVPWYLRLYVHTLTITSKGKENKPSYIHYQPAQDRLQPHLLEMLIQLPANSVTKVSIQFERALLKWTEYTPDPNHGFYVSPSVLSALVPSMVAAKPVDWEESPLFNSLFPVSDGSNYFVRLYTEPLLVNLPTPDFSMPYNVICLTCTVVAVCYGSFYNLLTRTFHIEEPRTGGLAKRLANLIRRARGVPPL
Consider B1, for which the enzymatic_activity result in series [1] is listed as “no change”.

B2: PIGT: N291Q (protein)
parent chain: MAAAMPLALLVLLLLGPGGWCLAEPPRDSLREELVITPLPSGDVAATFQFRTRWDSELQREGVSHYRLFPKALGQLISKYSLRELHLSFTQGFWRTRYWGPPFLQAPSGAELWVWFQDTVTDVDKSWKELSNVLSGIFCASLNFIDSTNTVTPTASFKPLGLANDTDHYFLRYAVLPREVVCTENLTPWKKLLPCSSKAGLSVLLKADRLFHTSYHSQAVHIRPVCRNARCTSISWELRQTLSVVFDAFITGQGKKDWSLFRMFSRTLTEPCPLASESRVYVDITTYNQDNETLEVHPPPTTTYQDVILGTRKTYAIYDLLDTAMINNSRNLNIQLKWKRPPENEAPPVPFLHAQRYVSGYGLQKGELSTLLYNTHPYRAFPVLLLDTVPWYLRLYVHTLTITSKGKENKPSYIHYQPAQDRLQPHLLEMLIQLPANSVTKVSIQFERALLKWTEYTPDPNHGFYVSPSVLSALVPSMVAAKPVDWEESPLFNSLFPVSDGSNYFVRLYTEPLLVNLPTPDFSMPYNVICLTCTVVAVCYGSFYNLLTRTFHIEEPRTGGLAKRLANLIRRARGVPPL
In the case of B2, the enzymatic_activity entry in series [1] is listed as “no change”.

B3: PIGT: N327Q (protein)
parent chain: MAAAMPLALLVLLLLGPGGWCLAEPPRDSLREELVITPLPSGDVAATFQFRTRWDSELQREGVSHYRLFPKALGQLISKYSLRELHLSFTQGFWRTRYWGPPFLQAPSGAELWVWFQDTVTDVDKSWKELSNVLSGIFCASLNFIDSTNTVTPTASFKPLGLANDTDHYFLRYAVLPREVVCTENLTPWKKLLPCSSKAGLSVLLKADRLFHTSYHSQAVHIRPVCRNARCTSISWELRQTLSVVFDAFITGQGKKDWSLFRMFSRTLTEPCPLASESRVYVDITTYNQDNETLEVHPPPTTTYQDVILGTRKTYAIYDLLDTAMINNSRNLNIQLKWKRPPENEAPPVPFLHAQRYVSGYGLQKGELSTLLYNTHPYRAFPVLLLDTVPWYLRLYVHTLTITSKGKENKPSYIHYQPAQDRLQPHLLEMLIQLPANSVTKVSIQFERALLKWTEYTPDPNHGFYVSPSVLSALVPSMVAAKPVDWEESPLFNSLFPVSDGSNYFVRLYTEPLLVNLPTPDFSMPYNVICLTCTVVAVCYGSFYNLLTRTFHIEEPRTGGLAKRLANLIRRARGVPPL
On to B3, for which the enzymatic_activity result in series [1] is recorded as “no change”.

B4: GPAA1: N203Q (protein)
parent chain: MGLLSDPVRRRALARLVLRLNAPLCVLSYVAGIAWFLALVFPPLTQRTYMSENAMGSTMVEEQFAGGDRARAFARDFAAHRKKSGALPVAWLERTMRSVGLEVYTQSFSRKLPFPDETHERYMVSGTNVYGILRAPRAASTESLVLTVPCGSDSTNSQAVGLLLALAAHFRGQIYWAKDIVFLVTEHDLLGTEAWLEAYHDVNVTGMQSSPLQGRAGAIQAAVALELSSDVVTSLDVAVEGLNGQLPNLDLLNLFQTFCQKGGLLCTLQGKLQPEDWTSLDGPLQGLQTLLLMVLRQASGRPHGSHGLFLRYRVEALTLRGINSFRQYKYDLVAVGKALEGMFRKLNHLLERLHQSFFLYLLPGLSRFVSIGLYMPAVGFLLLVLGLKALELWMQLHEAGMGLEEPGGAPGPSVPLPPSQGVGLASLVAPLLISQAMGLALYVLPVLGQHVATQHFPVAEAEAVVLTLLAIYAAGLALPHNTHRVVSTQAPDRGWMALKLVALIYLALQLGCIALTNFSLGFLLATTMVPTAALAKPHGPRTLYAALLVLTSPAATLLGSLFLWRELQEAPLSLAEGWQLFLAALAQGVLEHHTYGALLFPLLSLGLYPCWLLFWNVLFWK
As to B4, the enzymatic_activity result in series [2] is given as “no change”.

B5: PIGS: N267Q (protein)
parent chain: MAAAGAAATHLEVARGKRAALFFAAVAIVLGLPLWWKTTETYRASLPYSQISGLNALQLRLMVPVTVVFTRESVPLDDQEKLPFTVVHEREIPLKYKMKIKCRFQKAYRRALDHEEEALSSGSVQEAEAMLDEPQEQAEGSLTVYVISEHSSLLPQDMMSYIGPKRTAVVRGIMHREAFNIIGRRIVQVAQAMSLTEDVLAAALADHLPEDKWSAEKRRPLKSSLGYEITFSLLNPDPKSHDVYWDIEGAVRRYVQPFLNALGAAGNFSVDSQILYYAMLGVNPRFDSASSSYYLDMHSLPHVINPVESRLGSSAASLYPVLNFLLYVPELAHSPLYIQDKDGAPVATNAFHSPRWGGIMVYNVDSKTYNASVLPVRVEVDMVRVMEVFLAQLRLLFGIAQPQLPPKCLLSGPTSEGLMTWELDRLLWARSVENLATATTTLTSLAQLLGKISNIVIKDDVASEVYKAVAAVQKSAEELASGHLASAFVASQEAVTSSELAFFDPSLLHLLYFPDDQKFAIYIPLFLPMAVPILLSLVKIFLETRKSWRKPEKTD
For the protein B5, in series [3], the enzymatic_activity entry was “no change”.

B6: PIGS: N370Q (protein)
parent chain: MAAAGAAATHLEVARGKRAALFFAAVAIVLGLPLWWKTTETYRASLPYSQISGLNALQLRLMVPVTVVFTRESVPLDDQEKLPFTVVHEREIPLKYKMKIKCRFQKAYRRALDHEEEALSSGSVQEAEAMLDEPQEQAEGSLTVYVISEHSSLLPQDMMSYIGPKRTAVVRGIMHREAFNIIGRRIVQVAQAMSLTEDVLAAALADHLPEDKWSAEKRRPLKSSLGYEITFSLLNPDPKSHDVYWDIEGAVRRYVQPFLNALGAAGNFSVDSQILYYAMLGVNPRFDSASSSYYLDMHSLPHVINPVESRLGSSAASLYPVLNFLLYVPELAHSPLYIQDKDGAPVATNAFHSPRWGGIMVYNVDSKTYNASVLPVRVEVDMVRVMEVFLAQLRLLFGIAQPQLPPKCLLSGPTSEGLMTWELDRLLWARSVENLATATTTLTSLAQLLGKISNIVIKDDVASEVYKAVAAVQKSAEELASGHLASAFVASQEAVTSSELAFFDPSLLHLLYFPDDQKFAIYIPLFLPMAVPILLSLVKIFLETRKSWRKPEKTD
With B6, the enzymatic_activity result in series [3] is “no change”.
